Data taken from patent US20260102420A1, “CANCER IMMUNOTHERAPY” (Hoffmann-La Roche Inc., priority 2022, published 2026).
Like-named read-outs stand apart in the source and are kept apart here.

Key:
[1] = system: MKN45 tumors; assay: In vivo cancer model, MKN45 wt or UAP1 KO tumors in stem cell humanized NSG mice
Protocol: FIGS. 8A, 8B, 8C, 8D, and 8E. Deletion of UAP1 sensitizes MKN45 tumors to immunotherapy. FIG. 8A: Tumor growth curves of MKN45 wt and UAP1 KO cell in stem cell humanized NSG mice (huNSG). Animals were dosed either with vehicle control, 0.2 mg/kg or 0.4 mg/kg CEA-TCB. Time point of first dosing at day 15 as indicated. Tumor volume was measured with a caliper. Mice per group (n=10). FIG. 8B: Tumor volume ratio of TCB therapy groups and vehicle control groups for every time point after the first TCB treatment. FIG. 8C: Tumor growth curves for individual mice. Two-way-ANOVA statistical analysis was done with Graphpad Prism software. FIG. 8D and FIG. 8E show the measured individual tumor volumes over time within the treatment groups corresponding to the average values shown in FIGS. 8A and FIG. 8B.
Immunocompetent C57BL/6J and NOD.Cg-PrkdcscidIL-2rgtm1Wjl/SzJ (NSG) mice were obtained from Charles River Laboratories. All animal studies were performed under local Swiss government ethical approval and regulations (license ZH183/2020) according to international FELASA and national GV-Solas and TierSchG guidelines, respectively. […]
B16F10 and MKN45 wtl and UAP1 KO cells were trypsinized, washed and resuspended using a 1:1 mixture of tissue culture medium and Matrigel in a total volume of 100 μl. […] Tumors were measured twice weekly and tumor volume (mm3) was determined using the formula 0.5×length×width2. […]

[2] = system: CEA expressing metastatic CRCs; details: cited from earlier work
[3] = system: A549; assay: T cell-mediated killing assay, A549 wt vs UAP1 KO; assay type: cell-based, human; details: FIG. 3C
Protocol: FIGS. 3A, 3B, 3C and 3D. Tumor intrinsic UAP1 regulates TCB-mediated cytotoxicity in vitro. T cell-mediated killing assay. UAP1 knockout cells and wt cells for FIG. 3A MKN45 with CEA-TCB, FIG. 3B MKN45 with EpCAM-TCB, FIG. 3C A549 with CEA-TCB and FIG. 3D B16F10 with Tyrp1-TCB were used and measured was the cell count of tumor cells over time in an incucyte. Graphs show mean±SEM. P values were calculated using two-tailed paired Student t-test. *P<0.05, **P<0.01
25000 MKN45-nuclight red (NLR), 20000 A549-hCEA and 10000 B16F10-NLR tumor cells (wt or UAP1 ko) were seeded in one well of a 96 well-plate. Afterwards TCBs or siinfekl were given at the indicated concentrations. […] For MKN45-NLR and B16F10-NLR, T cell-mediated killing was calculated based on the red fluorescent signal coming from the tumor cells. All values were first transformed to fold-change to time 0, and % specific lysis was calculated as follows: […]
For A549-hCEA, the cytotox-green reagent (sartorius) was added to the co-culture at 1:16000 dilution and T-cell mediated killing was assesses by measuring green fluorescent count in each well. All values were first transformed to fold-change to time 0, and then % normalized green signal was calculated as follows: [(Green fluorescent counts TCB/Green fluorescent counts control TCB)×100]. […] T-cell mediated killing was measured as above. […]

[4] = system: CD8+ and CD4+ T cells; assay: Intra-tumor T cell activation marker analysis by flow cytometry; assay type: in vivo, mice; details: UAP1 KO groups, not in wt; 32 days post tumor injection; FIGS. 12A and 12B
Protocol: FIGS. 12A and 12B. 32 days post tumor injection, scouts were taken for intra-tumor T cell activation marker analysis. […] Data were obtained using flow cytometry. P values were calculated using two-tailed paired Student t-test. *P<0.05, **P<0.01
To confirm that the observed effect was due to the involvement of the endogenous mouse immune system, the experiment was repeated in NSG immunodeficient mice.

B1: cibisatamab (antibody, chains of the INN, looked up, V domains shown)
VH: QVQLVQSGAEVKKPGASVKVSCKASGYTFTEFGMNWVRQAPGQGLEWMGWINTKTGEATYVEEFKGRVTFTTDTSTSTAYMELRSLRSDDTAVYYCARWDFAYYVEAMDYWGQGTTVTVSS
VL: DIQMTQSPSSLSASVGDRVTITCKASAAVGTYVAWYQQKPGKAPKLLIYSASYRKRGVPSRFSGSGSGTDFTLTISSLQPEDFATYYCHQYYTYPLFTFGQGTKLEIK
VH2: QVQLVQSGAEVKKPGASVKVSCKASGYTFTEFGMNWVRQAPGQGLEWMGWINTKTGEATYVEEFKGRVTFTTDTSTSTAYMELRSLRSDDTAVYYCARWDFAYYVEAMDYWGQGTTVTVSS
VL2: QAVVTQEPSLTVSPGGTVTLTCGSSTGAVTTSNYANWVQEKPGQAFRGLIGGTNKRAPGTPARFSGSLLGGKAALTLSGAQPEDEAEYYCALWYSNLWVFGGGTKLTVL
tumor response ([1]; combination of UAP1 gene knockout and CEA TCB): complete tumor regression
tumor response ([1]; mice treated with CEA-TCB only): incomplete tumor growth control
patients with radiological shrinkage ([2]; in combination with PD-L1-inhibiting antibodies, 5/10 patients): 50%
patients with radiological shrinkage ([2]; monotherapy, 4/36 patients, failed at least two prior chemotherapy regimens): 11%
T cell killing of UAP1 KO cells compared to wt cells [3]: more efficiently killed
expression of the activation/exhaustion marker (Tim3) in intra-tumor T cells [4]: increased expression
